The results in this text go back to patent US8629107B2, “Genes and proteins associated with angiogenesis and uses thereof” (National Jewish Health, priority 2005, dated 2014).

In this assay the target is T1, Notch1 (Mus musculus, UniProt Q01705).
T1 construct: expressed in transfected cells; host or cells: human kidney 293T cells, transient transfection (LT-1 liposomes)
Kind of assay: Notch1 processing assay in human kidney 293T cells. The class given is cell-based. Conditions: 293T cells co-transfected with Notch1, vs cells solely expressing Notch1; anti-Myc immunoblot. Here is the method:
To monitor the effects of MAGP-2 on the processing and S3 cleavage of Notch1, human kidney 293T cells were transiently transfected in 6-well plates with LT-1 liposomes containing 0.5 μg/well of Notch1 (pCS2+mN1FL6MT), 0.5 μg/well Jagged-1 (pCS2+Jag1-6MT), or 1.5 μg/well of MAGP-2 (pcDNA3.1-MAGP-2/Myc-His) in all combinations. Forty-eight h post-transfection, the cells were washed with ice-cold PBS, lysed immediately in Buffer H/1% Triton X-100 [500 μl/well; (Schiemann et al, 2002)], and incubated on ice for 30 min. Afterward, insoluble material was removed by microcentrifugation and 100 μl of the resulting clarified extract was fractionated through 6% SDS-PAGE gels. The fractionated proteins were transferred electrophoretically to nitrocellulose and probed with anti-Myc 9E10 monoclonal antibodies (Covance, Princeton, N.J.) to visual Notch1 cleavage species.
Activation of Notch1 signaling involves three proteolytic processing events, termed S1, S2, and S3, that produce three distinct Notch1 fragments, termed TMIC, NEXT, and NICD, respectively (Mumm et al, 2000). […] The inventors tested this possibility by transiently transfecting human 293T cells with cDNAs encoding Myc-tagged versions of Notch1, Jagged-1, and MAGP-2 in all combinations, and subsequently monitored changes in NICD production and accumulation by immunoblot analyses using anti-Myc monoclonal antibodies. […]
For orientation: In western blotting, separated proteins are transferred to a membrane and probed.

T1 sequence (Q01705 19-2531): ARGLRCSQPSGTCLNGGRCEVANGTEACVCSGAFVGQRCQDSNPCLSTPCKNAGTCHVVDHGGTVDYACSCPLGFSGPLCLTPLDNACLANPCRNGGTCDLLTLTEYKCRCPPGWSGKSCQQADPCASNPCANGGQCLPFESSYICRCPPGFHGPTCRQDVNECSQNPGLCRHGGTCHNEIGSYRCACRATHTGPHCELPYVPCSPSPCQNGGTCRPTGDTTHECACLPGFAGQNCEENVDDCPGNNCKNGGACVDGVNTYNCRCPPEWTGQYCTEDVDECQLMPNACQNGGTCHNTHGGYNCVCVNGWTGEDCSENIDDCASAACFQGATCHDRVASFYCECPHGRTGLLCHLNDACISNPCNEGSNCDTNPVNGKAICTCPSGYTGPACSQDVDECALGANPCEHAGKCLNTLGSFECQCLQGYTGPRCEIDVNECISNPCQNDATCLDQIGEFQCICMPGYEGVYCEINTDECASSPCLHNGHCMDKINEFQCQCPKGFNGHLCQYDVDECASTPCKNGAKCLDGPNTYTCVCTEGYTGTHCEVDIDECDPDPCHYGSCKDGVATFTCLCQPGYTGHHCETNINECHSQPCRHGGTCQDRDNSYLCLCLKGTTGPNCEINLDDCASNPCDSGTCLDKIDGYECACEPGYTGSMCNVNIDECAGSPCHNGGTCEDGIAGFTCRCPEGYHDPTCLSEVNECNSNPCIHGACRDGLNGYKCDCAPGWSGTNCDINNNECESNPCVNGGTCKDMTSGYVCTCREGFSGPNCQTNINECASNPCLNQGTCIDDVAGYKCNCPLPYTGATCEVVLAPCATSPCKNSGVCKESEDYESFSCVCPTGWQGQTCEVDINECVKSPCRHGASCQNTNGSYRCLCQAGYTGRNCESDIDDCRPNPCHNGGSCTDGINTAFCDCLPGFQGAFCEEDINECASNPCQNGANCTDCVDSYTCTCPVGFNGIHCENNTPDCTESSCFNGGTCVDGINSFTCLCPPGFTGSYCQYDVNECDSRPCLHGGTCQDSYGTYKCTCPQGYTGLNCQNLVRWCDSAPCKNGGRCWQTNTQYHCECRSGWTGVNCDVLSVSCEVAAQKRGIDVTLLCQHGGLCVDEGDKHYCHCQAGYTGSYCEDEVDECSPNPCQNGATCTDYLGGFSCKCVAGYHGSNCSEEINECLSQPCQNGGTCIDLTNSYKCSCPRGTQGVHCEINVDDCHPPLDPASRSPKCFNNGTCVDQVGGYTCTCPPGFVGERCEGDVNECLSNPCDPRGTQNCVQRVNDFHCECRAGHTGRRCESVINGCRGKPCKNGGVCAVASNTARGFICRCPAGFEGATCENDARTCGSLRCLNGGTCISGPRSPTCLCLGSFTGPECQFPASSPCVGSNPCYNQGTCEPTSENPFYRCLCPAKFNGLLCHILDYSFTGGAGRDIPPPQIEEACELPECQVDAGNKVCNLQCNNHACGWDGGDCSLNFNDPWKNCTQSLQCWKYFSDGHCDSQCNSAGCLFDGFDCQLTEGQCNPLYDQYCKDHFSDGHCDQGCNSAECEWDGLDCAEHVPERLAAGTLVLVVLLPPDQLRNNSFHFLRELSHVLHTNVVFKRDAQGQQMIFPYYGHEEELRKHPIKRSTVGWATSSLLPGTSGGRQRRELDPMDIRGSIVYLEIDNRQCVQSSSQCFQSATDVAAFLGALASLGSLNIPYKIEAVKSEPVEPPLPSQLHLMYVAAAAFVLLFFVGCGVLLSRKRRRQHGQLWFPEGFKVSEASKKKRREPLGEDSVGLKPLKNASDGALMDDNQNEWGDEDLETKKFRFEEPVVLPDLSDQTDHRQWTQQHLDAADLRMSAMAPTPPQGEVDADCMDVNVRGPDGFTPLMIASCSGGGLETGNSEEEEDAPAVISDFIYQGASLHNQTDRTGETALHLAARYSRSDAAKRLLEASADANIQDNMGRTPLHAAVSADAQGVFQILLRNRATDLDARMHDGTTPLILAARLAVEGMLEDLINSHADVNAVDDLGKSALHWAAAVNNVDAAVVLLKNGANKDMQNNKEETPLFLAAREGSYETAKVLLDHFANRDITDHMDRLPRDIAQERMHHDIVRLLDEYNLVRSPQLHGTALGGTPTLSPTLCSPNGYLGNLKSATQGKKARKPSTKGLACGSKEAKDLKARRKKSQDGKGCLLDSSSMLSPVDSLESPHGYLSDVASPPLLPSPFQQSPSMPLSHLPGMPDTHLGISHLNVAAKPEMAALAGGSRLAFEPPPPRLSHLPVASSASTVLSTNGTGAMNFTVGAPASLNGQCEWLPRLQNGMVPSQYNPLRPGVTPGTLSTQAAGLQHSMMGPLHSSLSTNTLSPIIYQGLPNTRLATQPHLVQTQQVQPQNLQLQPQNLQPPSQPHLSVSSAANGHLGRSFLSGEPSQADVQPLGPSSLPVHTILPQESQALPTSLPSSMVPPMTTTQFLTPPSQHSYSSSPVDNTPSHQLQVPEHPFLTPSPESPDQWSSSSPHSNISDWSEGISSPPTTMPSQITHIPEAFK

B1: Jagged-1: Notch1 ligand; Myc-tagged murine Jagged-1 cDNA transiently transfected (protein)
chain: QFELEILSMQNVNGELQNGNCCGGVRNPGDRKCTRDECDTYFKVCLKEYQSRVTAGGPCSFGSGSTPVIGGNTFNLKASRGNDRNRIVLPFSFAWPRSYTLLVEAWDSSNDTIQPDSIIEKASHSGMINPSRQWQTLKQNTGIAHFEYQIRVTCDDHYYGFGCNKFCRPRDDFFGHYACDQNGNKTCMEGWMGPDCNKAICRQGCSPKHGSCKLPGDCRCQYGWQGLYCDKCIPHPGCVHGTCNEPWQCLCETNWGGQLCDKDLNYCGTHQPCLNRGTCSNTGPDKYQCSCPEGYSGPNCEIAEHACLSDPCHNRGSCKETSSGFECECSPGWTGPTCSTNIDDCSPNNCSHGGTCQDLVNGFKCVCPPQWTGKTCQLDANECEAKPCVNARSCKNLIASYYCDCLPGWMGQNCDININDCLGQCQNDASCRDLVNGYRCICPPGYAGDHCERDIDECASNPCLNGGHCQNEINRFQCLCPTGFSGNLCQLDIDYCEPNPCQNGAQCYNRASDYFCKCPEDYEGKNCSHLKDHCRTTTCEVIDSCTVAMASNDTPEGVRYISSNVCGPHGKCKSQSGGKFTCDCNKGFTGTYCHENINDCESNPCKNGGTCIDGVNSYKCICSDGWEGAHCENNINDCSQNPCHYGGTCRDLVNDFYCDCKNGWKGKTCHSRDSQCDEATCNNGGTCYDEVDTFKCMCPGGWEGTTCNIARNSSCLPNPCHNGGTCVVNGDSFTCVCKEGWEGPICTQNTNDCSPHPCYNSGTCVDGDNWYRCECAPGFAGPDCRININECQSSPCAFGATCVDEINGYQCICPPGHSGAKCHEVSGRSCITMGRVILDGAKWDDDCNTCQCLNGRVACSKVWCGPRPCRLHKSHNECPSGQSCIPVLDDQCFVRPCTGVGECRSSSLQPVKTKCTSDSYYQDNCANITFTFNKEMMSPGLTTEHICSELRNLNILKNVSAEYSIYIACEPSLSANNEIHVAISAEDIRDDGNPVKEITDKIIDLVSKRDGNSSLIAAVAEVRVQRRPLKNRTDFLVPLLSSVLTVAWVCCLVTAFYWCVRKRRKPSSHTHSAPEDNTTNNVREQLNQIKNPIEKHGANTVPIKDYENKNSKMSKIRTHNSEVEEDDMDKHQQKVRFAKQPVYTLVDREEKAPSGTPTKHPNWTNKQDNRDLESAQSLNRMEYIV
modifications: left off: small tags and cut ends
notes: Notch1 ligand; Myc-tagged murine Jagged-1 cDNA transiently transfected
As to B1, the “Notch1 processing and production of NICD” value is reported as “significantly enhanced”.
